Data as given in PMC8092592.
Values belong to the binder of their own block, whether it stands above or below them.

Assays:
[1] = substrate: CC protein origami tetrahedron TET12SN; assay: ITC; nanobody in the syringe titrated into the cell with TET12SN or a tetrahedron variant (2-5 µM), CC peptide dimer (5-10 µM) or a complex preformed by a first titration; MicroCal VP-ITC, 25 °C; 20 mM sodium phosphate pH 7.0, 150 mM NaCl; independent binding sites model (SEDPHAT), errors by Monte-Carlo
[2] = molecular target: protein origami tetrahedron TET12SN; assay: ITC; nanobody titrated into the CC peptide dimer, the origami protein or a preformed nanobody-target complex; conditions in SI Appendix
[3] = substrate: CC protein origami tetrahedron TET12SN; assay: ITC; titrations at 18, 25 and 32 °C fitted globally (independent binding sites, temperature-independent heat capacity); parameters reported at 25 °C; 20 mM sodium phosphate pH 7.0, 150 mM NaCl
[4] = substrate: CC protein origami tetrahedron variant TET12SN(22CC); assay: ITC; nanobody in the syringe titrated into the cell with TET12SN or a tetrahedron variant (2-5 µM), CC peptide dimer (5-10 µM) or a complex preformed by a first titration; MicroCal VP-ITC, 25 °C; 20 mM sodium phosphate pH 7.0, 150 mM NaCl; independent binding sites model (SEDPHAT), errors by Monte-Carlo; conditions: for stoichiometry N: scale: nanobody per TET12SN(22CC)
[5] = molecular target: preformed Nb28_2-TET12SN(22CC) complex (llama); assay: as above
[6] = molecular target: preformed Nb28_2-TET12SN complex (llama); assay: as above
[7] = molecular target: preformed Nb28_(2)-TET12SN complex (llama); assay: ITC; nanobody titrated into the CC peptide dimer, the origami protein or a preformed nanobody-target complex; conditions in SI Appendix
[8] = molecular target: preformed Nb30_2-TET12SN complex (llama); assay: ITC; titrations at 18, 25 and 32 °C fitted globally (independent binding sites, temperature-independent heat capacity); parameters reported at 25 °C; 20 mM sodium phosphate pH 7.0, 150 mM NaCl
[9] = molecular target: preformed Nb30_2-TET12SN complex (llama); assay: ITC; nanobody in the syringe titrated into the cell with TET12SN or a tetrahedron variant (2-5 µM), CC peptide dimer (5-10 µM) or a complex preformed by a first titration; MicroCal VP-ITC, 25 °C; 20 mM sodium phosphate pH 7.0, 150 mM NaCl; independent binding sites model (SEDPHAT), errors by Monte-Carlo
[10] = molecular target: preformed Nb30_(2)-TET12SN complex (llama); assay: ITC; nanobody titrated into the CC peptide dimer, the origami protein or a preformed nanobody-target complex; conditions in SI Appendix

stoichiometry N (nanobody per TET12SN (cell:syringe)) [1]: 2
Kd [2]: 160 nM
B1: nanobody Nb49 (VHH)
VHH: QVQLQESGGGLVQPGGSLRLSCIASGRTFNPYGMGWFRQVPGKERTFVSGITWIGGTTYYVNSVKGRFTISRDRAKNTVYLQMNSLKPEDTAVYYCAADKDNTGYNYWGQGTQVTVSS

Kd [3]: 160 nM
stoichiometry N (nanobody per TET12SN (cell:syringe)) [3]: 2
Kd [4]: 270 nM
stoichiometry N [4]: 2
stoichiometry N (nanobody per TET12SN (cell:syringe)) [1]: 2
Kd [5]: 24 nM
stoichiometry N (nanobody per complex (cell:syringe)) [5]: 2
stoichiometry N (nanobody per complex (cell:syringe)) [6]: 2
Kd [2]: 350 nM
Kd [7]: 26 nM
B2: nanobody Nb30 (VHH)
VHH: QVQLQESGGGLVQPGGSLRLSCAASGSIFSDNDMGWYRQPPGKQREWVATITYDHVTWYADSVKGRFAISRDNAKNTVYLQMNDLKPEDTAVYYCNAVPGRRGSWGQGTQVTVSS

stoichiometry N (nanobody per TET12SN (cell:syringe)) [1]: 2
KD, high-affinity site [2]: 27 nM
KD, second binding site [2]: 2000 nM
B3: nanobody Nb39 (VHH)
VHH: QVQLQESGGGLVQAGGSLRLSCAASGSIFSINVMGWYRQAPGKQRELLASITSRGSTNYADSVKDRFTISRDNAKNTVYLQINSLKPEDTAVYYCNSRGWTTTRGDYDYWGQGTQVTVSS

stoichiometry N (nanobody per TET12SN (cell:syringe)) [1]: 1
Kd [2]: 21000 nM
B4: nanobody Nb34 (VHH)
VHH: QVQLQESGGGLVQPGGSLRLSCAASQFTFSSDWMYWVRQAPGKGLEWVSSISPGGAATAYAASVKGRFTISRDNAKNTLYLQMNSLKSEDTAVYYCSKTRAGTGRGQGTQVTVSS

stoichiometry N (nanobody per TET12SN (cell:syringe)) [1]: 2
Kd [2]: 1.8 nM
B5: nanobody Nb26 (VHH)
VHH: QVQLQESGGGLVQAGDSLRLSCAASGRTFSTYPMGWFRQAPGKEREFVAASSSRAYYADSVKGRFTISRNNAKNTVYLQMNSLKPEDTAVYYCVADSSPYYRRYDAAQDYDYWGQGTQVTVSS

Kd [3]: 19 nM
stoichiometry N (nanobody per TET12SN (cell:syringe)) [3]: 2
Kd [8]: 1.6 nM
stoichiometry N (nanobody per complex (cell:syringe)) [8]: 2
Kd [4]: 27 nM
stoichiometry N [4]: 2
stoichiometry N (nanobody per TET12SN (cell:syringe)) [1]: 2
Kd [9]: 2.3 nM
stoichiometry N (nanobody per complex (cell:syringe)) [9]: 2
Kd [2]: 39 nM
Kd [10]: 2 nM
B6: nanobody Nb28 (VHH)
VHH: QVQLQESGGGLVQPGGSLRLSCAAPGFRLDNYVIGWFRQAPGKEREGVSCISSSAGSTYYADSVKGRFTISRDNAKNTVYLQMNSLKPEDTAVYYCATACYSSYVTYWGQGTQVTVSS
